Measurements reported in publication PMC10465243, “Identification of sucrose synthase from Micractinium conductrix to favor biocatalytic glycosylation” (Frontiers in Microbiology, 2023).

Tests used:
[1] = test system: OC[C@H]1O[C@@](CO)(O[C@H]2O[C@H](CO)[C@@H](O)[C@H](O)[C@H]2O)[C@@H](O)[C@@H]1O; assay: purified protein; format: biochemical, Micractinium conductrix; settings: 2 mM UDP, 50 mM HEPES-NaOH pH 7.0, 37°C, sucrose cleavage direction, apparent
[2] = test system: O=c1ccn([C@@H]2O[C@H](COP(=O)(O)OP(=O)(O)O)[C@@H](O)[C@H]2O)c(=O)[nH]1; assay: purified protein; format: biochemical, Micractinium conductrix; settings: 200 mM sucrose, 50 mM HEPES-NaOH pH 7.0, 37°C, sucrose cleavage direction, apparent

McSuSy (Micractinium conductrix; S31D), sequence (chain, as listed by the source S31D): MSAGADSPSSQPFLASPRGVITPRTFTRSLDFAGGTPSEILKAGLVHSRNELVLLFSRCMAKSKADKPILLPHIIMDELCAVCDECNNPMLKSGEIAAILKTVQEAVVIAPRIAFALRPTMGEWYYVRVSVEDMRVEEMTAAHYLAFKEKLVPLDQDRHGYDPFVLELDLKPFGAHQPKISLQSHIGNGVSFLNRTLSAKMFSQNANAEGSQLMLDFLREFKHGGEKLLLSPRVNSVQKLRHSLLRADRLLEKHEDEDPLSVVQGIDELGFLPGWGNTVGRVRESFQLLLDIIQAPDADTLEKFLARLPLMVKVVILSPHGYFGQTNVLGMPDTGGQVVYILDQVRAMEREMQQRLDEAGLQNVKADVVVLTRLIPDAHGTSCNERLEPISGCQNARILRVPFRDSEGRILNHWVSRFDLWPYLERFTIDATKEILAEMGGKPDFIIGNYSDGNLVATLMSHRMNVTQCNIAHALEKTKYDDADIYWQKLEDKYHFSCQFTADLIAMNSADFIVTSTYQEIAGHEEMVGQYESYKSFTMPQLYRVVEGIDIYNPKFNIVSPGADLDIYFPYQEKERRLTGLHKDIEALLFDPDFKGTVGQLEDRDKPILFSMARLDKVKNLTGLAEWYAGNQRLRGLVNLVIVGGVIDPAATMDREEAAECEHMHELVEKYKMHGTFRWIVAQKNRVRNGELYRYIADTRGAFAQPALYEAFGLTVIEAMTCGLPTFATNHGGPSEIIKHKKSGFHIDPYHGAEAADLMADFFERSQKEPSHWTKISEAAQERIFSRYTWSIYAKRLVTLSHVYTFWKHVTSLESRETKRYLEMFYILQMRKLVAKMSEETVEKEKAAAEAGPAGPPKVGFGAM
McSuSy (Micractinium conductrix), sequence (chain, as listed by the source): as the sequence (chain, as listed by the source S31D) above, with D31S counted along it

Substance	Km [1] [mM]	Km [2] [mM]	Vmax [2] [µmol/min/mg]	kcat [2] [s⁻¹]	kcat/Km [2] [M⁻¹ s⁻¹]
McSuSy (Micractinium conductrix)	90	0.14	10.4	17.3	124000
McSuSy (Micractinium conductrix; S31D)	88	0.092	11.4	19	206000
